This note sets out measurements from patent US20090238836.

Data set [1] addresses T1, RBL2 (NM-005611), substrate peptide from a peptide library, Q08999.
T1 chain: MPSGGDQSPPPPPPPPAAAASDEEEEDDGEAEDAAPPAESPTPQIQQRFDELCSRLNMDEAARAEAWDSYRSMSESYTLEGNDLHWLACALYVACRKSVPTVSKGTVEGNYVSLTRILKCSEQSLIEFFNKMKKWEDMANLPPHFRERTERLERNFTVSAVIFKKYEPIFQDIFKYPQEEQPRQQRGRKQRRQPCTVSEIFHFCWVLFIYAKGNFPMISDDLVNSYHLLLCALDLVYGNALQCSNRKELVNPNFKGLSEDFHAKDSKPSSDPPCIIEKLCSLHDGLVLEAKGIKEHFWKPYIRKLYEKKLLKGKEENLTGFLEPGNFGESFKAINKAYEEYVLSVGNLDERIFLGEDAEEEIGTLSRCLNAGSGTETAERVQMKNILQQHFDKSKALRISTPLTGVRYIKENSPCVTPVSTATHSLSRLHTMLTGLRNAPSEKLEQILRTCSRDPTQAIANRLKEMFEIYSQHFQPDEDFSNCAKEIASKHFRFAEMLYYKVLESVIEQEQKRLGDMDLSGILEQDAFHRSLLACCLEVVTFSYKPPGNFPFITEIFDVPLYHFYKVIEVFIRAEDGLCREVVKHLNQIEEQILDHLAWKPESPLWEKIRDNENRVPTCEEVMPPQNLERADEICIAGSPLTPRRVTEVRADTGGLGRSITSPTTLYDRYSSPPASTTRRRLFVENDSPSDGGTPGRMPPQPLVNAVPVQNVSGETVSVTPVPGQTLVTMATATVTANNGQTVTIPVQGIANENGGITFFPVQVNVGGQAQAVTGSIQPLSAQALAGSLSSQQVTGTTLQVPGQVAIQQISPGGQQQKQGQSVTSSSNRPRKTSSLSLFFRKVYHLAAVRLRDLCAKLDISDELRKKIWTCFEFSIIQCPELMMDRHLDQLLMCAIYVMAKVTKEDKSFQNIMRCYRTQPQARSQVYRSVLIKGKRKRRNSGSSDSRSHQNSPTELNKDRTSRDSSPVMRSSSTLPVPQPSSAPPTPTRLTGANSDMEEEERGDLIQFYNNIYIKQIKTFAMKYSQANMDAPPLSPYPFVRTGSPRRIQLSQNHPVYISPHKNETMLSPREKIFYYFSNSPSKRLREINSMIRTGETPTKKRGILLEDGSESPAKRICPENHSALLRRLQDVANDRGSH

The target of data set [2] is T2, FoxO3a (NP-963853), substrate peptide from a peptide library, O43524.
T2 chain: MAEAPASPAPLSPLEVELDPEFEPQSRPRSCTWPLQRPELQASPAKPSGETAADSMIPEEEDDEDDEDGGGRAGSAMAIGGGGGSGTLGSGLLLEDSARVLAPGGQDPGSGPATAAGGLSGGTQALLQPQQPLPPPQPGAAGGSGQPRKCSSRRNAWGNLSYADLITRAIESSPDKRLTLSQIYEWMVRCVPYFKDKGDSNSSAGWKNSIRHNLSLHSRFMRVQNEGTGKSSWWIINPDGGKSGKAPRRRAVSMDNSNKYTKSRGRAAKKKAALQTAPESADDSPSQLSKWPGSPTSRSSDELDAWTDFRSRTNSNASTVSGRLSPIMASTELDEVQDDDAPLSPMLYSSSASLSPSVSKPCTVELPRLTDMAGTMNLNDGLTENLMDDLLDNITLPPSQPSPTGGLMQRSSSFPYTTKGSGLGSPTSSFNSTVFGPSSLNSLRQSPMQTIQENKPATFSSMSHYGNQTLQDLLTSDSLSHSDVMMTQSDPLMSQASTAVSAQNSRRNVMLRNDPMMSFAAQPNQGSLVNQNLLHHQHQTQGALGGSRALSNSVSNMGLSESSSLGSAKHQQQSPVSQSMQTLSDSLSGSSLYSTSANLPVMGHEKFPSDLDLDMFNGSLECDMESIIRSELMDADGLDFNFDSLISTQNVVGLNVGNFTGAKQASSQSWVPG

B1: human Hip kinase 4 (HipK4), recombinant, expressed in Sf9 insect cells (protein)
chain: MSTIQSETDCYDIIEVLGKGTFGEVAKGWRRSTGEMVAIKILKNDAYRNRIIKNELKLLHCMRGLDPEEAHVIRFLEFFHDALKFYLVFELLEQNLFEFQKENNFAPLPARHIRTVTLQVLTALARLKELAIIHADLKPENIMLVDQTRCPFRVKVIDFGSASIFSEVRYVKEPYIQSRFYRAPEILLGLPFCEKVDVWSLGCVMAELHLGWPLYPGNNEYDQVRYICETQGLPKPHLLHAACKAHHFFKRNPHPDAANPWQLKSSADYLAETKVRPLERRKYMLKSLDQIETVNGGSVASRLTFPDREALAEHADLKSMVELIKRMLTWESHERISPSAALRHPFVSMQQLRSAHETTHYYQLSLRSYRLSLQVEGKPPTPVVAAEDGTPYYCLAEEKEAAGMGSVAGSSPFFREEKAPGMQRAIDQLDDLSLQEAGHGLWGETCTNAVSDMMVPLKAAITGHHVPDSGPEPILAFYSSRLAGRHKARKPPAGSKSDSNFSNLIRLSQVSPEDDRPCRGSSWEEGEHLGASAEPLAILQRDEDGPNIDNMTMEAERPDPELFDPSSCPGEWLSEPDCTLESVRGPRAQGLPPRRSHQHGPPRGATSFLQHVTGHH
With B1, the “phosphorylation of library peptides (HTS kinase assay, streptavidin-SPA beads)” value in data set [1] is “The proteins identified as HipK4 substrates with the aid of such an experimental approach are the following, inter alia; FoxO3a (NP-963853) and RBL2 (NM-005611)”; in data set [2], “The proteins identified as HipK4 substrates with the aid of such an experimental approach are the following, inter alia; FoxO3a (NP-963853) and RBL2 (NM-005611)”.
